For test [1], the target named is T1, Purified CEA (Biodesign International) (UniProt P06731 35-685).
T1 construct: Bought purified antigen, immobilized on 96-well plates at 5 ug/ml; also called carcinoembryonic antigen; target protein CEA
T1 sequence: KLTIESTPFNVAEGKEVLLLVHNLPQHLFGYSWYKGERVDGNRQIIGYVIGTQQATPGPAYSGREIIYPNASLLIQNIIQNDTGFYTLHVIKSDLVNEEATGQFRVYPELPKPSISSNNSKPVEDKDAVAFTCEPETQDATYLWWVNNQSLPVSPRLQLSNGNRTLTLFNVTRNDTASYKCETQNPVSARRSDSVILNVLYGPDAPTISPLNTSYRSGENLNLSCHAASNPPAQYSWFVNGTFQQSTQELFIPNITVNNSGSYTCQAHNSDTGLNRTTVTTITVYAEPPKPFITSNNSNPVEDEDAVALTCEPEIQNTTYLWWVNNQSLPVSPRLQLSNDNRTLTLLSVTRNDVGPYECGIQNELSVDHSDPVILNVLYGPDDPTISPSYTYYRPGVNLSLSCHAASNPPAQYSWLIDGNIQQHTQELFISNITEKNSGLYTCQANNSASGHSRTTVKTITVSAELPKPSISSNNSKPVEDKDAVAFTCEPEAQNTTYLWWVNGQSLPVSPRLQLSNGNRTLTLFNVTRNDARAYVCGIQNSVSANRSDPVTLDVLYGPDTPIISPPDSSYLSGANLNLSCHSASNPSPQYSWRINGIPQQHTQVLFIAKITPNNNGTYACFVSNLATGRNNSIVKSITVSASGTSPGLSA
The test is described as follows: plate assay: CEA immobilized at 5 ug/ml, serially diluted B-Per extract, bound CAB read by nitrocefin hydrolysis at 490 nm.

The target of test [2] is T1, Purified CEA (Biodesign International). Nature of the test: plate assay: purified CEA immobilized at 5 ug/ml, 2-fold dilutions of purified CAB1.11i, bound BLA activity read with nitrocefin at 490 nm.

This is an account of results in patent publication US8088609 (DANISCO US, dated 2012).

Numbering of substitutions follows the chain as printed.

B1: CAB1.11 molecule (scFv)
chain: DIVLTQSPASLSVSLGQRATMSCRAGESVDIFGVGFLHWYQQKPGQPPKLLIYRASNLESGIPVRFSGTGSGTDFTLIIDPVEADDVATYYCQQTNEDPYTFGGGTKLEIKGGGGSGGGGSGGGGSGGGGSGGGGSGGGGSEVQLQQSGAELVEPGASVKLSCTASGFNIKDTYMHWVKQRPEQGLEWIGRIDPANGNSKYVPKFQGKATITADTSSNTAYLQLTSLTSEDTAVYYCAPFGYYVSDYAMAYWGQGTSVTVSSTPVSEKQLAEVVANTITPLMKAQSVPGMAVAVIYQGKPHYYTFGKADIAANKPVTPQTLFELGSISKTFTGVLGGDAIARGEISLDDAVTRYWPQLTGKQWQGIRMLDLATYTAGGLPLQVPDEVTDNASLLRFYQNWQPQWKPGTTRLYANASIGLFGALAVKPSGMPYEQAMTTRVLKPLKLDHTWINVPKAEEAHYAWGYRDGKAVRVSPGMLDAQAYGVKTNVQDMANWVMANMAPENVADASLKQGIALAQSRYWRIGSMYQGLGWEMLNWPVEANTVVETSFGNVALAPLPVAEVNPPAPPVKASWVHKTGSTGGFGSYVAFIPEKQIGIVMLANTSYPNPARVEAAYHILEALQ
notes: scFv-BLA fusion; also called HR14.8; clone HR14.8
Turning to B1, the binding result in test [1] is “binds”.

B2: CAB1.11i molecule (scFv)
chain: B1 chain with K283A, S586A
notes: Single-chain fusion of a T84.66-derived anti-CEA scFv (vL-(GGGGS)6-vH) to deimmunized beta-lactamase (BLA); also called encoded by plasmid pHR19.2
B2: in test [2], the binding result was “binds”.
